The values below come from patent publication US10358663B2, “Method of production of 2,4-dihydroxybutyric acid” (ADISSEO FRANCE S.A.S., priority 2010, dated 2019).

Common to all, as to type: biochemical, Metallosphaera sedula
Common to all, as to conditions: other: malate semialdehyde, pH 7.5, 30° C.

Substrate in data set [1]: O=CC[C@H](O)C(=O)O
The data set is described as follows: Malate semialdehyde reductase assay, Ms-SSR N43H. The procedure:
(§1) Test for Malate Semialdehyde Reductase Activity: Reaction: (L)-Malate semialdehyde+NAD(P)H→(L)-2,4-dihydroxybutyric acid+NAD(P)
(§2) The assay mixture contained 200 mM Hepes (pH 7.5), 50 mM KCl, 5 mM MgCl2, 0.24 mM NADH or NADPH, and appropriate amounts of purified enzyme. Reactions were started by adding 10 mM (L)-malate semialdehyde (malate semialdehyde was prepared freshly for each test, see Example 4). Enzymatic assays were carried out at 30° C. in 96-well flat bottomed microtiter plates in a final volume of 250 μL. The reactions were followed by the characteristic absorption of NAD(P)H at 340 nm in a microplate reader (BioRad 680XR).
(§3) Site-directed mutagenesis was carried out using the oligonucleotide pairs listed in Table 8 and the pMs-SSR plasmid as the template. Point mutations to change the amino acid sequences were introduced by PCR (Phusion 1U, HF buffer 20% (v/v), dNTPs 2.5 mM, direct and reverse primers 1 μM each, template plasmid 200 ng, water). When possible, plasmids created by PCR contained new restriction sites (introduced using silent mutations) in addition to the functional mutation to facilitate identification of mutated clones. The PCR products were digested by DpnI at 37° C. for 1 h to remove template DNA, and transformed into NEB 5-alpha competent E. coli cells (NEB). […]

Substrate in data set [2]: O=CC[C@H](O)C(=O)O
The data set is described as follows: Malate semialdehyde reductase assay, Ms-SSR H39R. The procedure: as §1, §2, §3

Substrate in data set [3]: O=CC[C@H](O)C(=O)O
The data set is described as follows: Malate semialdehyde reductase assay, Ms-SSR wild type. As to the method:
as §1, §2

Substrate in data set [4]: O=CC[C@H](O)C(=O)O
The data set is described as follows: Malate semialdehyde reductase assay, Ms-SSR H39R N43H. As to the method: as §1, §2, §3

Positions count from the first letter of the chain named. Numbers in names are those of the source.

B1: Metallosphaera sedula succinic semialdehyde reductase Ms-SSR variant N43H, SEQ ID NO: 227 (Metallosphaera sedula DSM 5348; N43H) (protein)
chain: MKAAVLHTYKEPLSIEDVNISQPKAGEVKIKVKATGLCHSDVHVFEGKTPVPPPVVAGHEISGIVEEVGPGVTRVKPGDRVISAFIHPCGKCGNCVAGKENLCETFSQVRLKGVMPDGTSRLSKDGKEIRTFLGGGFAEYAIVGENALTRVPEDMDLEKVAVLGCAGLTGYGAISSSKIEPGDTVAVIGVGGVGLSTIQLLRASGAGRIIAVGTKKWKLDRAMELGATDVVNSKEIDPVKAIKEITGGGPQVVIEAGGNEDTIHMALDSVRIGGKVVLVGLPPATAMIPIRVASIVRGGIEVVGNYGGRPRVDMPKLLELVRQGRYDPSRLVTGRFRLEEINEAVKMLEEGEAIRSLIIP
With B1, the Km (commonly the substrate concentration at which the rate is half of its maximum) in data set [1] is 2500 µM.

B2: Metallosphaera sedula succinic semialdehyde reductase Ms-SSR variant H39R, SEQ ID NO: 225 (Metallosphaera sedula DSM 5348; H39R) (protein)
chain: B1 chain with H39R, H43N
As for B2, the Km in data set [2] was determined as 500 µM.

B3: Metallosphaera sedula succinic semialdehyde reductase Ms-SSR, wild type, SEQ ID NO: 76 (Metallosphaera sedula DSM 5348) (protein)
chain: B1 chain with H43N
With B3, the Km in data set [3] worked out at 1100 µM.

B4: Metallosphaera sedula succinic semialdehyde reductase Ms-SSR variant H39R N43H, SEQ ID NO: 81 (Metallosphaera sedula DSM 5348; H39R/N43H) (protein)
chain: B1 chain with H39R
Regarding B4, in data set [4], the Km came to 400 µM.
